Test results from patent US20240238445A1, “INHIBITORS AND USES THEREOF” (NEURACLE SCIENCE CO., LTD., priority 2021, published 2024).

Assays:
[1] = biological target: binding of FAM19A5 protein to LRRC4B (amino acids 453-576)-hFc (Homo sapiens, UniProt Q7Z5A7); test: Competitive inhibition assay, plate coated with LRRC4B (amino acids 453-576)-hFc, peptides at 20 nM
Source text: Next, to assess whether polypeptides comprising the binding domains of LRRC4 or LRRC4C proteins can have similar inhibitory effects on LRRC4B protein binding, the following synthetic peptides were constructed: (1) FBC4-23 (contains the binding domain of the LRRC4 protein, i.e., YSFFTTVTVETTE); and (2) FBC4C-23 (contains the binding domain of the LRRC4C protein, i.e., FSYFSTVTVETME). Then, the ability of the peptides to inhibit the binding of LRRC4 protein family members to FAM19A5 protein was assessed using a competitive inhibition assay. Briefly, plates were coated with 100 nM of either LRRC4B protein fragment #1 (amino acids 36-576 of SEQ ID NO: 2; SEQ ID NO: 5) or LRRC4B protein fragment #2 (amino acids 453-576 of SEQ ID NO: 2; SEQ ID NO: 7). Then, recombinant FAM19A5 protein (5 ng/ml for plates coated with LRRC4B fragment #1; and 1 ng/mL for plates coated with LRRC4B fragment #2) was added to the plates in combination with 20 nM of the FBC4-23, FBC4C-23, and FB-20 peptides. The plates were incubated at 37° C. and then, the amount of FAM19A5 protein bound to the coated LRRC4B protein fragments was assessed using HRP-conjugated anti-FAM19A5 (1-65) antibody.
Next, to determine the minimal sequence required to inhibit the interaction of FAM19A5 and members of the LRRC4 protein family, ten FB-20 peptide variants were constructed by serially deleting one or more amino acids from the N-terminus or C-terminus of the FB-20 peptide. Then, a competitive inhibition assay was used to assess the ability of the different FB-20 peptide variants to inhibit the interaction between FAM19A5 and LRRC4B protein. Again, plates were coated with 100 nM of either LRRC4B protein fragment #1 (amino acids 36-576 of SEQ ID NO: 2; SEQ ID NO: 5) or LRRC4B protein fragment #2 (amino acids 453-576 of SEQ ID NO: 2; SEQ ID NO: 7). Then, recombinant FAM19A5 protein (5 ng/ml for plates coated with LRRC4B fragment #1; and 1 ng/mL for plates coated with LRRC4B fragment #2) was added to the plates in combination with 20 nM of the different peptides described above. After incubating the plates at 37° C., the amount of FAM19A5 protein bound to the coated LRRC4B protein fragments was assessed using HRP-conjugated anti-FAM19A5 (1-65) antibody.
To identify the critical amino acid residues, multiple FB-20 peptide mutants were constructed, in which the individual residues of the core binding domain (i.e., YTYFTTVTVETLE; SEQ ID NO: 15) were substituted with alanine (A) or asparagine (N). Then, the ability of these FB-20 peptide mutants to inhibit the interaction between LRRC4B and FAM19A5 proteins was assessed, as described in Examples 3 and 4.

[2] = biological target: T1, FAM19A5 isoform 2 - LRRC4B protein complex in HEK293 cells (Homo sapiens, UniProt Q7Z5A7); test: Immunofluorescence: dissociation of FAM19A5 from full-length LRRC4B in HEK293 cells; format: cell-based; details: HEK293 cells expressing FAM19A5 isoform 2 and LRRC4B, treated 30 minutes
T1 construct: expressed in transfected cells; host or cells: HEK293
T1 sequence (Q7Z5A7 1-125 isoform Q7Z5A7-2, one chain of several): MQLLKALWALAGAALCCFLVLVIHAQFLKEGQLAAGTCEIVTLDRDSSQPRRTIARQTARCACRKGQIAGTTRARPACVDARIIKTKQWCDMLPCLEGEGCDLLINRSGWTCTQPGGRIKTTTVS
Experimental: Since LRRC4B protein fragments containing the binding domain described in Example 2 (e.g., LRRC4B (453-576); i.e., construct #11 in Table 6) was able to bind to FAM19A5 protein with high affinity, it was next assessed whether such protein fragments could compete with naturally existing LRRC4B protein for binding to FAM19A5 protein, and thereby, dissociate the FAM19A5-LRRC4 protein family complex. Briefly, HEK293 cells expressing both FAM19A5 isoform 2 and LRRC4B protein were treated in vitro for 30 minutes with either LRRC4B (453-576)-hFc or mutant LRRC4B (453-576)-hFc (includes alanine substitutions at positions 488 and 489 of SEQ ID NO: 2; SEQ ID NO: 16) protein fragments. Then, cells were immunostained with anti-FAM19A5 (1-65) and anti-LRRC4B antibodies to determine the expression of FAM19A5 and full-length LRRC4B proteins, respectively. The hFc-fused LRRC4B protein fragments were determined using an anti-hIgG antibody. The nuclei were stained with Hoechst 33342.

[3] = system: mouse primary hippocampal neurons; test: Synaptic marker (SYP, PSD95) expression in mouse primary hippocampal neurons; format: cell-based; details: 6 or 60 nM
Experimental: Next, it is generally known that neurites that outgrow from other neurites are capable of differentiating into axons, forming presynapses. Other neurites remain minor neurites and differentiate into dendrites, forming postsynapses. Therefore, whether the LRRC4B (453-576) protein fragment can also affect pre- and post-synaptic formation was also assessed. Briefly, mouse primary hippocampal neurons were cultured in vitro with the LRRC4B (453-576) protein fragment (6 or 60 nM). Control cells were treated with either DMSO (“Veh”) or the mutant LRRC4B (453-576) protein fragment which is not capable of binding to FAM19A5 protein (comprises alanine substitutions at positions 488 and 489). Then, at days 3 and 6 post initial culture, the expression level of synaptophysin (SYP; a presynaptic marker) was assessed. At day 7 post initial culture, the expression level of postsynaptic density 95 (PSD95; a postsynaptic marker) was assessed.
Primary hippocampal neurons were prepared from postnatal pups (postnatal day 1) of C57BL/6 (Nara Biotech, Seoul, Korea) as previously described by Beaudoin et al., Nature protocols 7(9): 1741-1754 (2012), which is incorporated herein by reference in its entirety. Briefly, cortices were dissected in Hank's buffered salt solution (HBSS) (Invitrogen, Carlsbad, CA, USA) and digested with 2.5% trypsin for 15 min at 37° C. […]

Chain of binding of FAM19A5 protein to LRRC4B (amino acids 453-576)-hFc (Q7Z5A7 44-132): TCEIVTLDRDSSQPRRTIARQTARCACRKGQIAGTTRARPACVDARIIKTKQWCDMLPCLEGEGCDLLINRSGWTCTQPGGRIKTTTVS

## GYTYFTTVTVETLETQPGEE [FB-20]
[1]; Table 8, 20 nM peptide, FAM19A5 1 ng/mL
  Inhibition rate (%) LRRC4B (amino acids 453-576)-hFc: 63.2%
[1]; Table 9, deletion variants, 20 nM peptide, FAM19A5 1 ng/mL
  Inhibition rate (%) LRRC4B (amino acids 453-576)-hFc: 62.0%
[1]; Table 10, alanine/asparagine mutants
  Inhibition rate (%) LRRC4B (amino acids 453-576)-hFc: 63.2%

B1: LRRC4B (453-576): LRRC4B ectodomain fragment, amino acids 453-576 of SEQ ID NO: 2; FLAG-tagged or hFc-fused (protein)
chain: VSAVDPVAAGGTGSGGGGPGGSGGVGGGSGGYTYFTTVTVETLETQPGEEALQPRGTEKEPPGPTTDGVWGGGRPGDAAGPASSSTTAPAPRSSRPTEKAFTVPITDVTENALKDLDDVMKTTK
modifications: FLAG tag or human Fc
notes: FLAG-tagged or hFc-fused
[2]
  dissociation of FAM19A5 from full-length LRRC4B protein: largely dissociated from the full-length LRRC4B protein
[3]
  SYP and PSD95 expression: increased both SYP and PSD95 expression
  number of puncta colabeled with SYP and PSD95: increased number of puncta that were colabeled with SYP and PSD95
